Measured values published in US20220403392 (published 2022).
Changes are numbered by the printed parent chain.

B1: NU 3' + 5' fiber (mixed)
DNA 1: TCCCTTTAGGGAATGACCCTGAAGTTCATCTGCACCACCGAGGGAAATCCCTTTTTCGCCTAGGTTGGGTAGGGTGGTGGCG
DNA 2: CGCCTAGGTTGGGTAGGGTGGTGGCGTTTTTCCCTAAAGGGATGACCCTGAAGTTCATCTGCACCACCGAAGGGATTTCCCT
DNA 3: CGGTGGTGCAGATGAACTTCAGGGTCA
B2: RA 5' + 5' fiber (mixed)
DNA 1: GGTTGGTGTGGTTGGTGGTTGGTGTGGTTGGTTTTCCCTTTAGGGAATGACCCTGAAGTTCATCTGCACCACCGAGGGAAATCCCTT
DNA 2: B2 DNA 1 with C36T, T39C, T41A, G43A, A46G, G76A, A79G, A81T, C83T, T86C
DNA 3: CGGTGGTGCAGATGAACTTCAGGGTCA
B3: RA 5' + 3' fiber (mixed)
DNA 1: B2 DNA 1
DNA 2: TTCCCTAAAGGGATGACCCTGAAGTTCATCTGCACCACCGAAGGGATTTCCCTTTTGGTTGGTGTGGTTGGTGGTTGGTGTGGTTGG
DNA 3: CGGTGGTGCAGATGAACTTCAGGGTCA
B4: RA 5'3' + 5'3' fiber (mixed)
DNA 1: GGTTGGTGTGGTTGGTGGTTGGTGTGGTTGGTTTTCCCTTTAGGGAATGACCCTGAAGTTCATCTGCACCACCGAGGGAAATCCCTTTTTGGTTGGTGTGGTTGGTGGTTGGTGTGGTTGG
DNA 2: B4 DNA 1 with C36T, T39C, T41A, G43A, A46G, G76A, A79G, A81T, C83T, T86C
DNA 3: CGGTGGTGCAGATGAACTTCAGGGTCA
B5: RA 3' + 3' fiber (mixed)
DNA 1: B3 DNA 2 with T2C, C5T, A7T, A9G, G12A, A42G, G45A, T47A, T49C, C52T
DNA 2: B3 DNA 2
DNA 3: CGGTGGTGCAGATGAACTTCAGGGTCA

Biological target: thrombin (Homo sapiens, UniProt P00734;P00734 P00734:328-363,P00734:364-622)
Test: inhibition; TT, plasma alone 16.3 s; about 0.5 uM in human plasma, 37 C

Binder	activity
B1	> 60 s
B2	> 60 s
B3	> 60 s
B4	> 60 s
B5	> 60 s
